Reference: patent US5849897

What was measured:
[1] = target: human ciliary neurotrophic factor receptor (CNTFR) (human); assay: indirect binding on COS cells transfected with clone I9: CNTF-myc, 9E10, 125I goat anti-mouse; hand-held gamma counter
[2] = target: human ciliary neurotrophic factor receptor (CNTFR) (human); assay: indirect binding on COS cells transfected with clone I13: CNTF-myc, 9E10, 125I goat anti-mouse; hand-held gamma counter
[3] = target: human ciliary neurotrophic factor receptor (CNTFR) (human); assay: indirect binding on COS cells transfected with clone I10: CNTF-myc, 9E10, 125I goat anti-mouse; hand-held gamma counter
[4] = target: human ciliary neurotrophic factor receptor (CNTFR) (human); assay: indirect binding on COS cells transfected with clone I12: CNTF-myc, 9E10, 125I goat anti-mouse; hand-held gamma counter
[5] = target: human ciliary neurotrophic factor receptor (CNTFR) (human); assay: indirect binding on COS cells transfected with clone I15: CNTF-myc, 9E10, 125I goat anti-mouse; hand-held gamma counter
[6] = target: human ciliary neurotrophic factor receptor (CNTFR) (human); assay: indirect binding: CNTF-myc, 9E10, FITC-labelled goat anti-mouse antibody, FACS of transfected COS cells
[7] = target: human ciliary neurotrophic factor receptor (CNTFR) (human); assay: indirect binding on COS cells transfected with clone I5: CNTF-myc, 9E10, 125I goat anti-mouse; hand-held gamma counter
[8] = target: human ciliary neurotrophic factor receptor (CNTFR) (human); assay: indirect binding on COS cells transfected with clone I2: CNTF-myc, 9E10, 125I goat anti-mouse; hand-held gamma counter
[9] = target: human ciliary neurotrophic factor receptor (CNTFR) (human); assay: indirect binding on COS cells transfected with clone I6: CNTF-myc, 9E10, 125I goat anti-mouse; hand-held gamma counter
[10] = target: human ciliary neurotrophic factor receptor (CNTFR) (human); assay: indirect binding on COS cells transfected with clone I1: CNTF-myc, 9E10, 125I goat anti-mouse; hand-held gamma counter
[11] = target: human ciliary neurotrophic factor receptor (CNTFR) (human); assay: indirect binding on COS cells transfected with clone I14: CNTF-myc, 9E10, 125I goat anti-mouse; hand-held gamma counter
[12] = target: human ciliary neurotrophic factor receptor (CNTFR) (human); assay: indirect binding on COS cells transfected with clone I8: CNTF-myc, 9E10, 125I goat anti-mouse; hand-held gamma counter
[13] = target: human ciliary neurotrophic factor receptor (CNTFR) (human); assay: indirect binding on COS cells transfected with clone I7: CNTF-myc, 9E10, 125I goat anti-mouse; hand-held gamma counter
[14] = target: human ciliary neurotrophic factor receptor (CNTFR) (human); assay: indirect binding on COS cells transfected with clone I4: CNTF-myc, 9E10, 125I goat anti-mouse; hand-held gamma counter
[15] = target: human ciliary neurotrophic factor receptor (CNTFR) (human); assay: indirect binding on COS cells transfected with clone I11: CNTF-myc, 9E10, 125I goat anti-mouse; hand-held gamma counter

CNTF/myc (ligand) showed a CPM bound [1] of 7000 CPM, a CPM bound [2] of 8000 CPM and a CPM bound [3] of 4500 CPM. For the same substance, the CPM bound [4] was 5000 CPM, the CPM bound [5] was 8000 CPM and the fold increase (FACS, positive against negative clones) [6] was 100 fold. It also gave a CPM bound [7] of 2000 CPM, a CPM bound [8] of 8500 CPM and a CPM bound [9] of 1600 CPM. For the same substance, the CPM bound [10] was 2000 CPM, the CPM bound [11] was 10000 CPM and the CPM bound [12] was 7500 CPM. The CPM bound [13] was 6000 CPM, the CPM bound [14] was 9000 CPM and the CPM bound [15] was 7000 CPM.
